Results published in US20240368668A1, “SUBSTRATES AND BIOMARKERS OF ADAMTS7” (The Broad Institute, Inc., priority 2021, published 2024).

The substances below were run against T1, mouse ADAMTS7 (Mus musculus, UniProt Q68SA9, E373Q) (assay: TMT10 TAILS N-terminomics, HUVEC experiment (process replicates, trypsin/AspN digest)). Settings: HUVEC TAILS HC; log fold change of N-terminal peptide, Ad-mADAMTS7 EQ over Luc.
T1 construct: Full-length mouse Adamts7 1-1857 (Uniprot Q68SA9, WT or E373Q catalytic mutant); expressed in transfected cells; host or cells: Human Coronary Artery Smooth Muscle Cells (HCA-SMC, Lonza), adenovirus 50 MOI
T1 sequence (Q68SA9 221-1657 E373Q): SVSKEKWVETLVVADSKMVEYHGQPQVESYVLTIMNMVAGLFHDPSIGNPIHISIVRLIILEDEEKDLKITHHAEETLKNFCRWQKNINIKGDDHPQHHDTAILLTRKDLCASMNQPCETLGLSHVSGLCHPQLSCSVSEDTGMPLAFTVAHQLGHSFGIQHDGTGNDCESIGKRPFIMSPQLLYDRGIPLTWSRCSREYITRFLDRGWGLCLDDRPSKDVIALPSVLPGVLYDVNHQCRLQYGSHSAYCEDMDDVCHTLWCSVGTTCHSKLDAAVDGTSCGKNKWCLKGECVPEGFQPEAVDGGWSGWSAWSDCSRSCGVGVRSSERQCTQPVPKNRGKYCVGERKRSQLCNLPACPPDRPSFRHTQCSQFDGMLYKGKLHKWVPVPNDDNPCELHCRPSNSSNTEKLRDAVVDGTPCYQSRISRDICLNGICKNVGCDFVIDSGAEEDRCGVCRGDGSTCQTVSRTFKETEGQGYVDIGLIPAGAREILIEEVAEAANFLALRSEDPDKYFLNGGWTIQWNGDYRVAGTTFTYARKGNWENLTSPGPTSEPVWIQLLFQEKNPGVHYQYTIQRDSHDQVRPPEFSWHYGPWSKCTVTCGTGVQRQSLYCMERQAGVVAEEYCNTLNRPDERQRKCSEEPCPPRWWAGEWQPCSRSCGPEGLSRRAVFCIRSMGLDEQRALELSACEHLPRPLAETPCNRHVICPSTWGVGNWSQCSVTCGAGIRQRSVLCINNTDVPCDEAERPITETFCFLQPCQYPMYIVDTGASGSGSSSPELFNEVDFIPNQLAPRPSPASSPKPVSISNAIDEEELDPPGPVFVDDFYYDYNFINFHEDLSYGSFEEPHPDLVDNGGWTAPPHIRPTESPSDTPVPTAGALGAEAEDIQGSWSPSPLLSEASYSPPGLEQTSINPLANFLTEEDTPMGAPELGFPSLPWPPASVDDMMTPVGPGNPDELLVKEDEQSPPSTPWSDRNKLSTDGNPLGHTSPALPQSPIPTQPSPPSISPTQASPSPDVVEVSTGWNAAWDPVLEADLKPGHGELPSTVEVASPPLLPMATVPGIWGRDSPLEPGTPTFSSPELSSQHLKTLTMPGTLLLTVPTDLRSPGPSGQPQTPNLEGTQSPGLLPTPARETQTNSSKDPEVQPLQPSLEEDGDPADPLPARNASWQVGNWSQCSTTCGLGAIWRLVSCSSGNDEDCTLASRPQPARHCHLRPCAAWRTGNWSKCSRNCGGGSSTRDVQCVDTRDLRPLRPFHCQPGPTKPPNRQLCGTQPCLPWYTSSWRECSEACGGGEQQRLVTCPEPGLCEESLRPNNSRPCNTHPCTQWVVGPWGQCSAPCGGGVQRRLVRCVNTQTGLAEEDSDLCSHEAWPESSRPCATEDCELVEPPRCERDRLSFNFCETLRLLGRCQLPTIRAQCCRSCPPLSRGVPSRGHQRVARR
Assay type: cell-based, human
From the text: ADAMTS7 Expression, Cell Culture and Preparation of the Secreted Proteins—Full-length mouse Adamts7 1-1857 (Uniprot Q68SA9, WT or E373Q catalytic mutant) with a carboxyl terminal 3xFLAG tag was used to generate custom adenoviruses as previously described. Adeno-CMV-Luciferase (Ad-Luc) from Vector Biolabs was used as a negative control. Human Coronary Artery Smooth Muscle Cells (HCA-SMC) were obtained from Lonza and expanded in Lonza SmGM-2 media in 15 cm tissue culture plates. Twenty-four hours before media collection, near confluent plates were transduced with 50 MOI adenovirus and switched to Lonza Basal SM media with volumes of 20 ml per 15 cm plate. Expression of the Flag tagged ADAMTS7 was confirmed from the media using western blot and detected using the anti-Flag M2-HRP antibody (Sigma, A8592). Collected media was processed by adding protease inhibitors (1 mM EDTA and 1 mM PMSF) and clarified by 500 g×5 min spin at 4 C to pellet cell debris. Cell media supernatants were then passed through a 0.22 um filter and kept chilled. Processed media was then concentrated 50-100× using 3 kDa Centricon Plus-70 filter unit, spun at 3,500 g×60 min at 4 C. Approximately 10% of the processed, concentrated media was set aside for total secretome proteolytic analysis. The remaining 90% of the processed, concentrated media was buffer exchanged into 50 mM HEPES pH 8.0, 150 mM NaCl (2×50 ml) using the 3 kDa Centricon Plus-70 filter unit and concentrated to >2 mg/ml to serve as input for the TAILS experiment. Secretome and TAILS input samples were stored at −80° C.
For the first experiment, referred to as SMC1, 120 ml of media from 6×15 cm dishes was pooled from each condition (Luc, WT, EQ) and processed to produce three separate inputs for the TAILS experiment. Luc, WT and EQ inputs from the SMC1 experiment were each divided into triplicate 400 ug samples to generate technical replicate TAILS data. For the second experiment, referred to as SMC2, media was processed separately in triplicate for each condition (Luc1, Luc2, Luc3, WT1, WT2, WT3, EQ1, EQ2, EQ3) using 60 ml of media from 3×15 cm dishes for each process replicate. Inputs from the SMC2 experiment used process replicates of 300 ug each to generate TAILS data. The third experiment used input from cultured Human umbilical vein endothelial cells (HUVEC) from Lifeline Cell Technology grown in VascuLife Media and transduced in Lifeline Basal EC (+bFGF2 10 ng/ml). The HUVEC experiment used the same strategy as the SMC2 experiment, with 40 ml of media from 2×15 cm dishes for each process replicate and used 200 ug each to generate TAILS data. Inputs for process replicate experiments were restricted to the lowest concentration from the 9 parallel samples for SMC2 or HUVEC.
TMT10 isotopic labeling and negative selection of non-labeled peptides-Sample preparation was performed based on the TAILS protocol from the Overall lab with some modifications. From a single experiment, nine parallel protein samples in 50 mM HEPES pH 8.0, 150 mM NaCl were separately denatured with guanidinium chloride (Sigma, G4505) to reach a final concentration of 2.5M guanidinium chloride and 250 mM HEPES and incubated at 65° C. for 15 min. Reduction was achieved through addition of tris(2-carboxylethyl) phosphine (TCEP) at a final concentration of […] and incubated at 65° C. for 45 min. Alkylation reaction was performed with addition of iodoacetamide (IAA, Sigma, A3221) to a final concentration of 10 mM IAA for 15 min at room temperature in the dark. Following denaturation, reduction and alkylation steps, ten percent of each of the nine parallel protein samples was removed and combined to serve as a pooled reference. Isobaric tags were added to free amine groups using the TMT10plex Isobaric Mass Tagging Kit (ThermoFisher, 90113) with TMT channels randomly assigned to the nine samples and TMT 131 assigned to the pooled reference. […]

Substance	logFC.mEQ.over.Luc
LTBP1_393 (LTATNFR; listed as Homo sapiens)	−0.18
HSPG2_2331 (ANLAYPAGSTQPIR; listed as Homo sapiens)	−0.01
EFEMP1_124 (AVAGPEMQTGR; listed as Homo sapiens)	−0.38
FN1_1656 (SSSPVTGYR; listed as Homo sapiens)	−0.08
LOX_124 (WFQAGYSTSR; listed as Homo sapiens)	0.03
FLNA_1285 (LTQTGGPHVKAR; listed as Homo sapiens)	−0.52
FBN1_29 (LEAGNVKETR; listed as Homo sapiens)	−0.34
FN1_40 (QSPVAVSQSKPGCYDNGKHYQINQQWER; listed as Homo sapiens)	−0.50
LOXL2_37 (FQQPAPEYHQPQAPANVAKIQLR; listed as Homo sapiens)	−0.65
AEBP1_37 (FLEGFLSELEPEPR; listed as Homo sapiens)	−0.58
IGFBP7_101 (AAGGPGVSGVCVCKSR; listed as Homo sapiens)	−0.04
FN1_36 (MVQPQSPVAVSQSKPGCYDNGKHYQINQQWER; listed as Homo sapiens)	−0.47
FN1_886 (NQESTPVVIQQETTGTPR; listed as Homo sapiens)	−0.43
FN1_1143 (LTPGVEYVYTIQVLR; listed as Homo sapiens)	−0.24
